In US20230340555A1, “PRODUCTION OF GLYCOSYLATED CANNABINOIDS” (WILLOW BIOSCIENCES, INC., priority 2020, published 2023):

What was measured:
[1] = test system: CN3 yeast strain host cells; test: Detection of glycosylated cannabinoids and cannabinoid precursors in yeast cells expressing UDP-glycosyl transferase (HPLC-MS); assay type: cell-based; design: key to CBDA-glc / OLA-glc / CBGA-glc / CBGA-(glc)2 / CBD-glc / CBD-(glc)2 / OLA-(glc)2 / CBGA-glucuronic acid: (+) represents the lowest detected quantities; (++), (+++), and (++++) signify relative increasing intermediate detected levels; (++), (+++), and (++++) signify relative increasing intermediate detected levels; (++), (+++), and (++++) signify relative increasing intermediate detected levels; (+++++) represents the highest detected quantities; No detectable levels of a glycosylated cannabinoid compound or glycosylated cannabinoid precursor compound are indicated by “n.d.”; details: for production of glycosylated cannabinoids or cannabinoid precursor compounds: pellet or supernatant of recombinant yeast host cells transformed with the UGT; for CBD-(glc)2 / CBD-glc: 0.5 g/L CBD
Source text: CN3 yeast strain host cells were transformed as described in Example 1 with one of the following heterologous UGT genes: (1) AtUGT73C6, (2) AtUGT73B4, (3) AtUGT71 D1, (4) AtUGT76E12, (5) AtUGT88A1, (6) HaUGT76G1-L, (7) At5g49690, (8) AtUGT76C4, (9) CsUGT73C6, (10) SrUGT76C1, (11) AtUGT85A3, (12) AtUGT73B1, (13) Atg65550, (14) AtUGT76B1, (15) ATUGT76B1, (16) CsUGT75B2, (17) CsUGT73B4, (18) CsUGT73B1, (19) CsUGT75D1-DN11028, and (20) CsUGT71D1-DN48028. The transformed host cells were pre-grown overnight in yeast extract peptone dextrose (YPD) growth medium and then back diluted into yeast extract peptone galactose (YPG) to OD600 = 0.2. […] Strains were incubated for 20 h at 28° C. rotating at 600 RPM in an EPOCH|2 microplate reader (BioTek). Subsequently, samples were treated with an extraction solvent (80 % Acetonitrile, 20 % Methanol) for 1 hour rotating at 100 RPM. After 20 minutes centrifugation at 12,000 RPM, the supernatant was filtered with a basix 13 mm syringe filter (0.22 µm pore size, Nylon membrane) and transferred to a new tube for further analysis.
Glycosylated cannabinoid compounds and glycosylated cannabinoid precursor compounds were assayed in the supernatant and the cellular pellet employing HPLC and HPLC-MS analysis. HPLC and HPLC-MS analysis was carried out as described below to detect the following glycosylated cannabinoid and cannabinoid precursor compounds: CBGA monoglucoside, CBGA diglucoside, CBDA monoglucoside, CBDA diglucoside, CBGA glucuronic acid, CBD monoglucoside, CBD diglucoside, olivetolic acid monoglucoside (“OliAcid monoglucoside”), olivetolic acid diglucoside (“OliAcid diglucoside”).
HPLC analysis was carried out on an Agilent Technologies 1290 Infinity system, consisting of a vacuum degasser, a binary pump, a thermostated autosampler, a thermostated column compartment and a diode array detector (DAD). A Zorbax Eclipse Plus EC-18 column (2.1 × 50 mm, 1.8 µm, Agilent, USA) was used with a mobile phase composed of 0.1% formic acid in both (A) water with 0.2 % Formic Acid and (B) Acetonitrile with 0.2 % Formic Acid. The chromatographic conditions were set as follows: 0.0-8.0 min linear gradient from 5 to 95% B; 8.1-9.09 min […], 9.10-11.0 min 5 to 95% A for equilibration of the column with the initial conditions. The flow rate was set at 0.4 ml/min. The column temperature was set at 40° C. The sample injection volume was 5 µL. The UV/DAD acquisitions were carried out in the range 190-400 nm and chromatograms were acquired at 265 and 350 nm.
HPLC-MS analysis was carried out to confirm the identity of the HPLC peaks using an Agilent Technologies 6530 Accurate-Mass quadrupole time of flight (QToF) mass spectrometer operating in negative ionization (ESI -) mode. The mass spectrometer experimental parameters were set as follows: the capillary voltage was 3.5 kV, the nebulizer (N2) pressure was 35 psi, the drying gas temperature was 350° C., the drying gas flow was 11 L/min and the skimmer voltage was 65 V. Data were acquired by Agilent Mass Hunter software. The mass spectrometer was operated in full-scan mode in the m/z range 50-1100. Extracted ion chromatograms (EICs) were obtained with an accuracy of 10 ppm m/z from total ion chromatogram (TIC) employing the m/z corresponding to the molecular ions [M-H]^- 385.1504 for Olivetolic Acid Mono-Glucoside, 547.2032 for Olivetolic Acid di-Glucoside, 521.2756 for CBGA Mono-Glucoside, 683.3284 for CBGA Di-Glucoside, 535.2549 for CBGA Glucuronic Acid, 519.2600 for CBDA Mono-Glucoside, 475.2701 for CBD Mono-Glucoside, 637.3302 for CBD Di-Glucoside.
The glycosylated cannabinoid compounds and glycosylated cannabinoid precursor compounds were detected in a relative and semi-quantitative fashion. […]

[2] = test system: bacterial strain BL21 (DE3); test: CBDA depletion in BL21 (DE3) strains expressing UGTs (UHPLC-MS); assay type: cell-based; details: 0.1 mM CBDA, induced with 100 µM IPTG for 4h at 37° C. vs controls without induction
Source text: The following cDNAs encoding UGTs from Arabidopsis thaliana, Cannabis sativa and Helianthus annuus UGTs were cloned into pDONOR-zeo (as described in Example 1) and then recombined into the prokaryotic expression vector pDEST14: AtUGT73C6 (SEQ ID NO: 3), AtUGT88A1 (SEQ ID NO: 5), AtUGT71 D1 (SEQ ID NO: 7), AtUGT73B4 (SEQ ID NO: 9), AtUGT76C4 (SEQ ID NO: 11), AtUGT76E12 (SEQ ID NO: 13), and At5g49690 (SEQ ID NO: 17), CsUGT73C6 (SEQ ID NO: 15), HaUGT76G1L (SEQ ID NO: 1), and SrUGT76G1 (SEQ ID NO: 19). Host cells from the bacterial strain BL21 (DE3) were transformed individually pDEST14 vector.
A BL21 (DE3) single colony was inoculated in liquid media and incubated at 37° C. overnight. The bacterial cultures were diluted to a final 0.6 OD and CBDA was added to a final concentration of 0.1 mM. The cultures were split, and half was induced with 100 µM IPTG for 4h at 37° C. to express the UGTs and the other half was kept as controls without induction of UGT expression.
Subsequently, samples were treated with a 1:1 volume of acetonitrile for 15 minutes at 250 RPM. After 30 minutes centrifugation at 4,000 RPM, samples were diluted 1000-fold in the same solvent for further analysis.
CBDA depletion was assayed employing UHPLC-MS analysis. The instrument used was a Thermo Vanquish UHPLC connected to a Thermo TSQ Altis mass spectrometer. The UHPLC consists of a vacuum degasser, a ternary pump, a thermostated autosampler held at 5° C., and a thermostated column compartment. An Accucore C18 (150 × 2.2 mm, 2.6 µm, Thermo, USA) was used. The mobile phase is water with 0.1 % formic acid (A) and acetonitrile with 0.1 % formic acid (B) on a linear gradient (see Table 5). The flow rate was set at 0.800 mL/min. The column temperature was set at 30° C. The sample injection volume was 1 µL.
MS analyses were carried out in order to ensure the identity of the peaks and were performed on a Thermo TSQ Altis triple quadrupole mass spectrometer using electrospray ionization in negative mode. Compounds were analyzed using selected reaction monitoring using two ion pairs for quantitation and confirmation respectively.

[3] = 20 h growth, detected in PELLET, 0.05 mM hexanoic acid
[4] = 20 h growth, detected in PELLET
[5] = 20 h growth, detected in SUPERNATANT, 0.2 mM hexanoic acid
[6] = 20 h growth, detected in SUPERNATANT

B1: CsUGT73B4: UDP-glycosyl transferase from Cannabis sativa, amino acid sequence SEQ ID NO: 34 (protein, listed as Cannabis sativa)
chain: MSKGHTIPLLHLARVLLNRHVTVTIFTTPANRSFITKFLPATSAAIVELPFPKNIPGVPNGVENTEDFPTMSMSMFYSLVLGTQNMKPDLDRALENIQTPVSFMVSDGFLWWTLDSASKLGFPRLVFYGMSHYAMAVYHSLFNSKKPKQTETETVVSDFPWIKLTRSEYDPSAQNGEDQSLAHEFMSKATEATNNSFGMIYNSFYELEPMFTDYWNQKVGPKSWPLGPLCLHDMKIESRGLVVHPWLDEKESSSVLYVAFGSQATVSSEQVREIAKGLEYSNVNFFWVLRKLEPEENKFLEEFEKRVKNRGIVVRDWVNQMEILKHKSVKGFFSHCGWNSVMESLSAGLPILGFPMMAEQHINAKMVVEEIKIGLRVKSYDGSLNGIVKSEEVSKMVKELMEGEVGKEMRKKVEEFAVMAHKAVQKGGSSWETLDLLLSSTKQRIHHY
[1]
  production of glycosylated cannabinoids or cannabinoid precursor compounds: No production

B2: CsUGT75B2: UDP-glycosyl transferase from Cannabis sativa, amino acid sequence SEQ ID NO: 32 (protein, listed as Cannabis sativa)
chain: MVQPRFLILAFPLQGTINPCLNLANQLIRVANAQVTFVTSVNAHRLIMTTHTVATTSNNLLSFSPFFDGYDEGVTDGKGFHDHFVEFKRRGWQAVGDILELGFKEGRPYTCLVYSILLTWAADVAATHNVPASMFWMQPATVFDVYYYYFHGHKEIICANTKNHSFSLSFPRIPLTMNLKDLPSLMVDSNYSYILTMLHEMYKDFEKESNNTKIILVNTFDELEPDALRAINKFNLIGIGPLITSKTSFSFRNYIEWLNTKPKKTVVYVSFGSILILKKQQMDEIAKGLLEFGHPFLWVIKEKNSSSKEGVHEDNIKNELSYKEELEKLGMIVPWCSQMEVLRNESLGCFVTHCGWNSTLESIVSGVPVVAFPQWTDQQTNAKLIEEMWKIGVRVKPDEDGIVKSEEIKRCLELVMSKNENRTEIVKNVKKWQNLTKEAMREGGSSEKNLITFVKSIHQ
[1]
  production of glycosylated cannabinoids or cannabinoid precursor compounds: No production

B3: CsUGT73B1: UDP-glycosyl transferase from Cannabis sativa, amino acid sequence SEQ ID NO: 36 (protein, listed as Cannabis sativa)
chain: MSKEIWVVPFFGQGHLFPSMELCKQIASRNINTLLVIPSNLSFSIPSSLRQYPLLQIVEIQPTSAPSAQPGPDPIDQPPHGNPDQFEMGLENLLQAQVTGPDSVRPICAILDVMMDWTTEVFNKFDIPTIGFFTSGACSAAMEYGLWKAQPIDLKPGEVRLLPGLPEEMAVTYLDTNQRPHQPPGPPLHLFGVGHQGPFVDGAHRPPGPPPPPYLGRAGPRQRGPPKHGSQPPWVDGLKGSIALMINTCDYLERPFIEYLTKQIGKPVWGVGPLLPEQFWNSVSSNSILHDHEIRTNRQSNVSEDDVIQWLDSKPRGSVLYVCFGTEVSPSMEEYSELADALEASTQPFIWVVHSGTGRSGPPPSRGPTQEDYFPHGLASQVGPKGLIINGWAPQLLILSHSSIGGFLTHCGWNSTVEAIGLGVPLLAWPIRGDQNYNAKLVVAHLKLGFMISDNLSEKIKKHEIVKGIKTLMGDDDIKSRARNLAAIFQKGFPISSTTNLDVFRDMINNFT
[1]
  production of glycosylated cannabinoids or cannabinoid precursor compounds: No production

B4: AtUGT73C6: UDP-glycosyl transferase from Arabidopsis thaliana, amino acid sequence SEQ ID NO: 4 (protein, listed as Arabidopsis thaliana)
chain: MAFEKNNEPFPLHFVLFPFMAQGHMIPMVDIARLLAQRGVLITIVTTPHNAARFKNVLNRAIESGLPINLVQVKFPYQEAGLQEGQENMDLLTTMEQITSFFKAVNLLKEPVQNLIEEMSPRPSCLISDMCLSYTSEIAKKFKIPKILFHGMGCFCLLCVNVLRKNREILDNLKSDKEYFIVPYFPDRVEFTRPQVPVETYVPAGWKEILEDMVEADKTSYGVIVNSFQELEPAYAKDFKEARSGKAWTIGPVSLCNKVGVDKAERGNKSDIDQDECLEWLDSKEPGSVLYVCLGSICNLPLSQLLELGLGLEESQRPFIWVIRGWEKYKELVEWFSESGFEDRIQDRGLLIKGWSPQMLILSHPSVGGFLTHCGWNSTLEGITAGLPMLTWPLFADQFCNEKLVVQILKVGVSAEVKEVMKWGEEEKIGVLVDKEGVKKAVEELMGESDDAKERRRRAKELGESAHKAVEEGGSSHSNITFLLQDIMQLAQSNN
[1]; [3]
  CBDA-glc: +++
  CBGA-(glc)2: ++
  CBGA-glc: ++++
  CBGA-glucuronic acid: ++
  OLA-(glc)2: ++
  OLA-glc: +++
[1]; [4]
  CBD-(glc)2: ++
  CBD-glc: +++
[1]; [5]
  CBGA-(glc)2: +
  CBGA-glc: +
  OLA-glc: +++
[1]; [6]
  CBD-(glc)2: ++
  CBD-glc: +++
[1]
  production of glycosylated cannabinoids or cannabinoid precursor compounds: detected
[2]
  decrease in CBDA content: 12%
